Among the data in patent US20230114801A1 (SYSTIMMUNE, published 2023) are Kd values, retold here.

The target of test [1] is T1, human CD3 (human, UniProt P07766 23-126; P04234 22-105).
T1 construct: also called His-tagged human CD3; human CD3 (Acro CDD-H52W1)
Nature of the test: BLI (Octet), binder on AHC sensor, 100 nM human antigen, 1:1 fit. For orientation: In BLI a coated tip is dipped into the sample, and binding shifts an interference pattern.

Test [2] addresses T2, human EGFR (human, UniProt P00533 25-645, limits assumed).
T2 construct: Soluble antigen in Octet; construct not described
Described as above.

In the next test the target is T3, human HER3 (human, UniProt P21860 20-643).
T3 construct: Soluble antigen in Octet; bought; also called human HER3 (Acro ER3-H5223)
The description is as above.

In test [3] the target is T1, human CD3. Briefly: BLI (Octet), binder on AHC sensor, 100 nM human CD3, 1:1 fit.
The target of test [4] is T2, human EGFR. Briefly: BLI (Octet), binder on AHC sensor, 200 nM human EGFR, 1:1 fit.

B1: SI-75X18 (other)
chain 1: QVQLQESGGRLVQPGEPLSLTCKTSGIDLSSNAIGWVRQAPGKGLEWIGVIFGSGNTYYASWAKGRFTISRSTSTVYLKMNSLRSEDTAIYYCARGGYSSDIWGQGTLVTVSSASTKGPSVFPLAPSSKSTSGGTAALGCLVKDYFPEPVTVSWNSGALTSGVHTFPAVLQSSGLYSLSSVVTVPSSSLGTQTYICNVNHKPSNTKVDKRVEPKSCDKTHTCPPCPAPEAAGGPSVFLFPPKPKDTLMISRTPEVTCVVVDVSHEDPEVKFNWYVDGVEVHNAKTKPREEQYNSTYRVVSVLTVLHQDWLNGKEYKCAVSNKALPAPIEKTISKAKGQPREPQVYTLPPSRDELTKNQVSLSCAVKGFYPSDIAVEWESNGQPENNYKTTPPVLDSDGSFFLVSKLTVDKSRWQQGNVFSCSVMHEALHNHYTQKSLSLSPGGGGGSGGGGSQVQLQQSGPGLVKPSETLSITCTVSGFSLTNYGVHWIRQAPGKGLEWLGVIWSGGNTDYNTPFTSRFTITKDNSKNQVYFKLRSVRADDTAIYYCARALTYYDYEFAYWGQGTLVTVSSGGGGSGGGGSGGGGSGGGGSEIVLTQSPSTLSVSPGERATFSCRASQSIGTNIHWYQQKPGKPPRLLIKYASESISGIPDRFSGSGSGTEFTLTISSVQSEDFAVYYCQQNNNWPTTFGPGTKLTVL
chain 2: DPQLTQSPSSLSATVGQRVTINCQSSQSVAKNNNLAWFQQKPGKPPKLLIYSASTLAAGVPSRFSGSGSGTQFTLTITRVQSEDFATYYCSARDSGNIQSFGGGTRVEIKRTVAAPSVFIFPPSDEQLKSGTASVVCLLNNFYPREAKVQWKVDNALQSGNSQESVTEQDSKDSTYSLSSTLTLSKADYEKHKVYACEVTHQGLSSPVTKSFNRGECGGDKTHTCPPCPAPEAAGGPSVFLFPPKPKDTLMISRTPEVTCVVVDVSHEDPEVKFNWYVDGVEVHNAKTKPREEQYNSTYRVVSVLTVLHQDWLNGKEYKCAVSNKALPAPIEKTISKAKGQPREPQVYTLPPSRDELTKNQVSLWCLVKGFYPSDIAVEWESNGQPENNYKTTPPVLDSDGSFFLYSKLTVDKSRWQQGNVFSCSVMHEALHNRFTQKSLSLSPGGGGGSGGGGSQVQLQESGGGLVKPGGSLSLSCAASGFTFSSYWMSWVRQAPGKGLEWVANINRDGSASYYVDSVKGRFTISRDDAKNSLYLQMNSLRAEDTAVYYCARDRGVGYFDLWGRGTLVTVSSGGGGSGGGGSGGGGSQSALTQPASVSGSPGQSITISCTGTSSDVGGYNFVSWYQQHPGKAPKLMIYDVSDRPSGVSDRFSGSKSGNTASLIISGLQADDEADYYCSSYGSSSTHVIFGGGTKVTVL
notes: tri-miniGNC; D3 αCD3* (Fab), D4 αEGFR, D5 αHER3
As a reminder, the Kd is a measure of binding affinity in units of concentration. Lower therefore signals a tighter complex. Take B1: the Kd stood at 47.3 nM with human CD3 [1], 2.72 nM with human EGFR [2] and 93.8 nM with human HER3.

B2: SI-75X3 (other)
chain 1: EIVLTQSPSTLSVSPGERATFSCRASQSIGTNIHWYQQKPGKPPRLLIKYASESISGIPDRFSGSGSGTEFTLTISSVQSEDFAVYYCQQNNNWPTTFGPGTKLTVLGGGGSGGGGSGGGGSGGGGSQVQLQQSGPGLVKPSETLSITCTVSGFSLTNYGVHWIRQAPGKGLEWLGVIWSGGNTDYNTPFTSRFTITKDNSKNQVYFKLRSVRADDTAIYYCARALTYYDYEFAYWGQGTLVTVSSGGGGSGGGGSEVQLVESGGGLVQPGGSLRLSCAASGFTISTNAMSWVRQAPGKGLEWIGVITGRDITYYASWAKGRFTISRDNSKNTLYLQMNSLRAEDTAVYYCARDGGSSAITSNNIWGQGTLVTVSSASTKGPSVFPLAPSSKSTSGGTAALGCLVKDYFPEPVTVSWNSGALTSGVHTFPAVLQSSGLYSLSSVVTVPSSSLGTQTYICNVNHKPSNTKVDKRVEPKSCDKTHTCPPCPAPEAAGGPSVFLFPPKPKDTLMISRTPEVTCVVVDVSHEDPEVKFNWYVDGVEVHNAKTKPREEQYNSTYRVVSVLTVLHQDWLNGKEYKCAVSNKALPAPIEKTISKAKGQPREPQVYTLPPSRDELTKNQVSLSCAVKGFYPSDIAVEWESNGQPENNYKTTPPVLDSDGSFFLVSKLTVDKSRWQQGNVFSCSVMHEALHNHYTQKSLSLSPG
chain 2: QSALTQPASVSGSPGQSITISCTGTSSDVGGYNFVSWYQQHPGKAPKLMIYDVSDRPSGVSDRFSGSKSGNTASLIISGLQADDEADYYCSSYGSSSTHVIFGGGTKVTVLGGGGSGGGGSGGGGSGGGGSQVQLQESGGGLVKPGGSLSLSCAASGFTFSSYWMSWVRQAPGKGLEWVANINRDGSASYYVDSVKGRFTISRDDAKNSLYLQMNSLRAEDTAVYYCARDRGVGYFDLWGRGTLVTVSSGGGGSGGGGSDVVMTQSPSTLSASVGDRVTINCQASESISSWLAWYQQKPGKAPKLLIYEASKLASGVPSRFSGSGSGTEFTLTISSLQPDDFATYYCQGYFYFISRTYVNSFGGGTKVEIKRTVAAPSVFIFPPSDEQLKSGTASVVCLLNNFYPREAKVQWKVDNALQSGNSQESVTEQDSKDSTYSLSSTLTLSKADYEKHKVYACEVTHQGLSSPVTKSFNRGECGGDKTHTCPPCPAPEAAGGPSVFLFPPKPKDTLMISRTPEVTCVVVDVSHEDPEVKFNWYVDGVEVHNAKTKPREEQYNSTYRVVSVLTVLHQDWLNGKEYKCAVSNKALPAPIEKTISKAKGQPREPQVYTLPPSRDELTKNQVSLWCLVKGFYPSDIAVEWESNGQPENNYKTTPPVLDSDGSFFLYSKLTVDKSRWQQGNVFSCSVMHEALHNRFTQKSLSLSPG
notes: tri-miniGNC; D1 αEGFR, D2 αHER3, D3 αCD3 (Fab); also called tri-miniGNC (SI-75X3)
For the molecule B2, the Kd came to 18.2 nM in the test with human CD3 [1], 8.47 nM with human EGFR [2] and 146 nM in the test with human HER3.

B3: SI-75X16 (other)
chain 1: EIVLTQSPSTLSVSPGERATFSCRASQSIGTNIHWYQQKPGKPPRLLIKYASESISGIPDRFSGSGSGTEFTLTISSVQSEDFAVYYCQQNNNWPTTFGPGTKLTVLGGGGSGGGGSGGGGSGGGGSQVQLQQSGPGLVKPSETLSITCTVSGFSLTNYGVHWIRQAPGKGLEWLGVIWSGGNTDYNTPFTSRFTITKDNSKNQVYFKLRSVRADDTAIYYCARALTYYDYEFAYWGQGTLVTVSSGGGGSGGGGSQVQLQESGGRLVQPGEPLSLTCKTSGIDLSSNAIGWVRQAPGKGLEWIGVIFGSGNTYYASWAKGRFTISRSTSTVYLKMNSLRSEDTAIYYCARGGYSSDIWGQGTLVTVSSASTKGPSVFPLAPSSKSTSGGTAALGCLVKDYFPEPVTVSWNSGALTSGVHTFPAVLQSSGLYSLSSVVTVPSSSLGTQTYICNVNHKPSNTKVDKRVEPKSCDKTHTCPPCPAPEAAGGPSVFLFPPKPKDTLMISRTPEVTCVVVDVSHEDPEVKFNWYVDGVEVHNAKTKPREEQYNSTYRVVSVLTVLHQDWLNGKEYKCAVSNKALPAPIEKTISKAKGQPREPQVYTLPPSRDELTKNQVSLSCAVKGFYPSDIAVEWESNGQPENNYKTTPPVLDSDGSFFLVSKLTVDKSRWQQGNVFSCSVMHEALHNHYTQKSLSLSPG
chain 2: QSALTQPASVSGSPGQSITISCTGTSSDVGGYNFVSWYQQHPGKAPKLMIYDVSDRPSGVSDRFSGSKSGNTASLIISGLQADDEADYYCSSYGSSSTHVIFGGGTKVTVLGGGGSGGGGSGGGGSGGGGSQVQLQESGGGLVKPGGSLSLSCAASGFTFSSYWMSWVRQAPGKGLEWVANINRDGSASYYVDSVKGRFTISRDDAKNSLYLQMNSLRAEDTAVYYCARDRGVGYFDLWGRGTLVTVSSGGGGSGGGGSDPQLTQSPSSLSATVGQRVTINCQSSQSVAKNNNLAWFQQKPGKPPKLLIYSASTLAAGVPSRFSGSGSGTQFTLTITRVQSEDFATYYCSARDSGNIQSFGGGTRVEIKRTVAAPSVFIFPPSDEQLKSGTASVVCLLNNFYPREAKVQWKVDNALQSGNSQESVTEQDSKDSTYSLSSTLTLSKADYEKHKVYACEVTHQGLSSPVTKSFNRGECGGDKTHTCPPCPAPEAAGGPSVFLFPPKPKDTLMISRTPEVTCVVVDVSHEDPEVKFNWYVDGVEVHNAKTKPREEQYNSTYRVVSVLTVLHQDWLNGKEYKCAVSNKALPAPIEKTISKAKGQPREPQVYTLPPSRDELTKNQVSLWCLVKGFYPSDIAVEWESNGQPENNYKTTPPVLDSDGSFFLYSKLTVDKSRWQQGNVFSCSVMHEALHNRFTQKSLSLSPG
notes: tri-miniGNC; D1 αEGFR, D2 αHER3, D3 αCD3* (Fab)
In the case of B3, the Kd in the test with human CD3 [1] turned out to be 33.4 nM; with human EGFR [2], 6.8 nM; in the test with human HER3 it was 113 nM.

B4: SI-75X13 (bispecific antibody, human IgG1, kappa, L234A L235A)
chain 1: QVQLQESGGRLVQPGEPLSLTCKTSGIDLSSNAIGWVRQAPGKGLEWIGVIFGSGNTYYASWAKGRFTISRSTSTVYLKMNSLRSEDTAIYYCARGGYSSDIWGQGTLVTVSSASTKGPSVFPLAPSSKSTSGGTAALGCLVKDYFPEPVTVSWNSGALTSGVHTFPAVLQSSGLYSLSSVVTVPSSSLGTQTYICNVNHKPSNTKVDKRVEPKSCDKTHTCPPCPAPEAAGGPSVFLFPPKPKDTLMISRTPEVTCVVVDVSHEDPEVKFNWYVDGVEVHNAKTKPREEQYNSTYRVVSVLTVLHQDWLNGKEYKCAVSNKALPAPIEKTISKAKGQPREPQVYTLPPSRDELTKNQVSLSCAVKGFYPSDIAVEWESNGQPENNYKTTPPVLDSDGSFFLVSKLTVDKSRWQQGNVFSCSVMHEALHNHYTQKSLSLSPGGGGGSGGGGSEVQLQESGGGLVQAGDSLSLSCLVSGRSFNSYTMGWFRQAPGKEREFVAAILWSGPTTYYADSVKGRFTISRDNAKNTVYLQMNSLKPEDTAVYYCAAALGVLVLAPGNVYSYWGQGTQVTVSS
chain 2: DPQLTQSPSSLSATVGQRVTINCQSSQSVAKNNNLAWFQQKPGKPPKLLIYSASTLAAGVPSRFSGSGSGTQFTLTITRVQSEDFATYYCSARDSGNIQSFGGGTRVEIKRTVAAPSVFIFPPSDEQLKSGTASVVCLLNNFYPREAKVQWKVDNALQSGNSQESVTEQDSKDSTYSLSSTLTLSKADYEKHKVYACEVTHQGLSSPVTKSFNRGECGGDKTHTCPPCPAPEAAGGPSVFLFPPKPKDTLMISRTPEVTCVVVDVSHEDPEVKFNWYVDGVEVHNAKTKPREEQYNSTYRVVSVLTVLHQDWLNGKEYKCAVSNKALPAPIEKTISKAKGQPREPQVYTLPPSRDELTKNQVSLWCLVKGFYPSDIAVEWESNGQPENNYKTTPPVLDSDGSFFLYSKLTVDKSRWQQGNVFSCSVMHEALHNRFTQKSLSLSPG
notes: bi-miniGNC; D3 αCD3* (Fab), D4 αEGFR VHH
As to B4, the Kd in the test with human CD3 [3] came out at 56 nM; with human EGFR [4], 34 nM.
